Assay [1] deals with T1, FcγRIIb extracellular domain with C-terminal His tag (human, UniProt P31994 43-217).
T1 construct: extracellular domain; expressed in FreeStyle293 cells; analyte in Biacore; also called FcgRIIb; 2b
T1 sequence (looked up): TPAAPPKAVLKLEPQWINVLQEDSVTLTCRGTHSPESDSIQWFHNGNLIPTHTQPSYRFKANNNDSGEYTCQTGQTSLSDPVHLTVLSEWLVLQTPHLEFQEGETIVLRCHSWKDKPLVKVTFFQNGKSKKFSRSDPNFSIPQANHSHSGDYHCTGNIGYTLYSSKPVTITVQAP
The assay is described as follows: SPR (Biacore), captured antibody, FcγR as analyte; relative binding.

For assay [2], the target named is T2, FcγRIa extracellular domain with C-terminal His tag (human, UniProt P12314 16-292).
T2 construct: extracellular domain; expressed in FreeStyle293 cells; analyte in Biacore; also called FcgRI; 1a
Described as above.

T2 sequence (P12314 16-292): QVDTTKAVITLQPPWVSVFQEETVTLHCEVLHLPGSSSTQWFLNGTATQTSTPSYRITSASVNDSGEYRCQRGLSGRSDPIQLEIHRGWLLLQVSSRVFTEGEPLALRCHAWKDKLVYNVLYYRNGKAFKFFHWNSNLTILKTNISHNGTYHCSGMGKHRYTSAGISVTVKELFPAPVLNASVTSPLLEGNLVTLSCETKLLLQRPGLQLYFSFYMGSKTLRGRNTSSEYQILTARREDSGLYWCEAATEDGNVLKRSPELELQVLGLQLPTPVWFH

B1: GpH7-A5/GpH7-B3 variant Y296_07I/GpL16-k0 (antibody, human IgG1, kappa)
heavy 1: not shown
heavy 2: not shown
light: DIVMTQSPLSLPVTPGEPASISCQASESLVHSNRNTYLHWYLQKPGQSPQLLIYKVSNRFSGVPDRFSGSGSGTDFTLKISRVEAEDVGVYYCSQNTHVPPTFGQGTKVEIERTVAAPSVFIFPPSDEQLKSGTASVVCLLNNFYPREAKVQWKVDNALQSGNSQESVTEQDSKDSTYSLSSTLTLSKADYEKHKVYACEVTHQGLSSPVTKSFNRGEC
notes: He Ab; IgG1, mutation in one H chain
Consider B1, for which the He/Con_2b in assay [1] is 84.3 % of HeCon Ab (GpH7-A5/GpH7-B3/GpL16-k0 = 100). Besides, in assay [2], the He/Con_1a is 104 % of HeCon Ab (GpH7-A5/GpH7-B3/GpL16-k0 = 100).

B2: GpH7-A5/GpH7-B3 variant Y296_10E/GpL16-k0 (antibody, human IgG1, kappa)
heavy 1: not shown
heavy 2: not shown
light: DIVMTQSPLSLPVTPGEPASISCQASESLVHSNRNTYLHWYLQKPGQSPQLLIYKVSNRFSGVPDRFSGSGSGTDFTLKISRVEAEDVGVYYCSQNTHVPPTFGQGTKVEIERTVAAPSVFIFPPSDEQLKSGTASVVCLLNNFYPREAKVQWKVDNALQSGNSQESVTEQDSKDSTYSLSSTLTLSKADYEKHKVYACEVTHQGLSSPVTKSFNRGEC
notes: as for B1
Turning to B2, the He/Con_2b in assay [1] is 98 % of HeCon Ab (GpH7-A5/GpH7-B3/GpL16-k0 = 100). For the same molecule, the He/Con_1a in assay [2] was 106 % of HeCon Ab (GpH7-A5/GpH7-B3/GpL16-k0 = 100).

B3: GpH7-A5/GpH7-B3 variant Y300_03V/GpL16-k0 (antibody, human IgG1, kappa)
heavy 1: not shown
heavy 2: not shown
light: DIVMTQSPLSLPVTPGEPASISCQASESLVHSNRNTYLHWYLQKPGQSPQLLIYKVSNRFSGVPDRFSGSGSGTDFTLKISRVEAEDVGVYYCSQNTHVPPTFGQGTKVEIERTVAAPSVFIFPPSDEQLKSGTASVVCLLNNFYPREAKVQWKVDNALQSGNSQESVTEQDSKDSTYSLSSTLTLSKADYEKHKVYACEVTHQGLSSPVTKSFNRGEC
notes: as for B1
B3: the He/Con_2b in assay [1] was 73.9 % of HeCon Ab (GpH7-A5/GpH7-B3/GpL16-k0 = 100). The He/Con_1a in assay [2] was 117 % of HeCon Ab (GpH7-A5/GpH7-B3/GpL16-k0 = 100).

B4: GpH7-A5/GpH7-B3 variant Y300_08L/GpL16-k0 (antibody, human IgG1, kappa)
heavy 1: not shown
heavy 2: not shown
light: DIVMTQSPLSLPVTPGEPASISCQASESLVHSNRNTYLHWYLQKPGQSPQLLIYKVSNRFSGVPDRFSGSGSGTDFTLKISRVEAEDVGVYYCSQNTHVPPTFGQGTKVEIERTVAAPSVFIFPPSDEQLKSGTASVVCLLNNFYPREAKVQWKVDNALQSGNSQESVTEQDSKDSTYSLSSTLTLSKADYEKHKVYACEVTHQGLSSPVTKSFNRGEC
notes: as for B1
For B4, the He/Con_2b in assay [1] was 73.6 % of HeCon Ab (GpH7-A5/GpH7-B3/GpL16-k0 = 100). Also, in assay [2], the He/Con_1a was 113 % of HeCon Ab (GpH7-A5/GpH7-B3/GpL16-k0 = 100).

B5: GpH7-A5/GpH7-B3 variant Y300_06M/GpL16-k0 (antibody, human IgG1, kappa)
heavy 1: not shown
heavy 2: not shown
light: DIVMTQSPLSLPVTPGEPASISCQASESLVHSNRNTYLHWYLQKPGQSPQLLIYKVSNRFSGVPDRFSGSGSGTDFTLKISRVEAEDVGVYYCSQNTHVPPTFGQGTKVEIERTVAAPSVFIFPPSDEQLKSGTASVVCLLNNFYPREAKVQWKVDNALQSGNSQESVTEQDSKDSTYSLSSTLTLSKADYEKHKVYACEVTHQGLSSPVTKSFNRGEC
notes: as for B1
For B5, the He/Con_2b in assay [1] was 84.3 % of HeCon Ab (GpH7-A5/GpH7-B3/GpL16-k0 = 100). Besides, the He/Con_1a in assay [2] was 112 % of HeCon Ab (GpH7-A5/GpH7-B3/GpL16-k0 = 100).

B6: GpH7-A5/GpH7-B3 variant Y296_18N/GpL16-k0 (antibody, human IgG1, kappa)
heavy 1: not shown
heavy 2: not shown
light: DIVMTQSPLSLPVTPGEPASISCQASESLVHSNRNTYLHWYLQKPGQSPQLLIYKVSNRFSGVPDRFSGSGSGTDFTLKISRVEAEDVGVYYCSQNTHVPPTFGQGTKVEIERTVAAPSVFIFPPSDEQLKSGTASVVCLLNNFYPREAKVQWKVDNALQSGNSQESVTEQDSKDSTYSLSSTLTLSKADYEKHKVYACEVTHQGLSSPVTKSFNRGEC
notes: as for B1
Take B6: the He/Con_2b in assay [1] is 91.5 % of HeCon Ab (GpH7-A5/GpH7-B3/GpL16-k0 = 100). Besides, the He/Con_1a in assay [2] is 106 % of HeCon Ab (GpH7-A5/GpH7-B3/GpL16-k0 = 100).

B7: GpH7-A5/GpH7-B3 variant Y296_12R/GpL16-k0 (antibody, human IgG1, kappa)
heavy 1: not shown
heavy 2: not shown
light: DIVMTQSPLSLPVTPGEPASISCQASESLVHSNRNTYLHWYLQKPGQSPQLLIYKVSNRFSGVPDRFSGSGSGTDFTLKISRVEAEDVGVYYCSQNTHVPPTFGQGTKVEIERTVAAPSVFIFPPSDEQLKSGTASVVCLLNNFYPREAKVQWKVDNALQSGNSQESVTEQDSKDSTYSLSSTLTLSKADYEKHKVYACEVTHQGLSSPVTKSFNRGEC
notes: as for B1
In the case of B7, the He/Con_2b in assay [1] was 79.5 % of HeCon Ab (GpH7-A5/GpH7-B3/GpL16-k0 = 100). The He/Con_1a in assay [2] was 106 % of HeCon Ab (GpH7-A5/GpH7-B3/GpL16-k0 = 100).

B8: GpH7-A5/GpH7-B3 variant Y300_11K/GpL16-k0 (antibody, human IgG1, kappa)
heavy 1: not shown
heavy 2: not shown
light: DIVMTQSPLSLPVTPGEPASISCQASESLVHSNRNTYLHWYLQKPGQSPQLLIYKVSNRFSGVPDRFSGSGSGTDFTLKISRVEAEDVGVYYCSQNTHVPPTFGQGTKVEIERTVAAPSVFIFPPSDEQLKSGTASVVCLLNNFYPREAKVQWKVDNALQSGNSQESVTEQDSKDSTYSLSSTLTLSKADYEKHKVYACEVTHQGLSSPVTKSFNRGEC
notes: as for B1
With B8, the He/Con_2b in assay [1] was 51.6 % of HeCon Ab (GpH7-A5/GpH7-B3/GpL16-k0 = 100). In assay [2], the He/Con_1a was 107 % of HeCon Ab (GpH7-A5/GpH7-B3/GpL16-k0 = 100).

B9: GpH7-A5/GpH7-B3 variant Y296_16H/GpL16-k0 (antibody, human IgG1, kappa)
heavy 1: not shown
heavy 2: not shown
light: DIVMTQSPLSLPVTPGEPASISCQASESLVHSNRNTYLHWYLQKPGQSPQLLIYKVSNRFSGVPDRFSGSGSGTDFTLKISRVEAEDVGVYYCSQNTHVPPTFGQGTKVEIERTVAAPSVFIFPPSDEQLKSGTASVVCLLNNFYPREAKVQWKVDNALQSGNSQESVTEQDSKDSTYSLSSTLTLSKADYEKHKVYACEVTHQGLSSPVTKSFNRGEC
notes: as for B1
As for B9, the He/Con_2b in assay [1] is 92.2 % of HeCon Ab (GpH7-A5/GpH7-B3/GpL16-k0 = 100). In assay [2], the He/Con_1a was 106 % of HeCon Ab (GpH7-A5/GpH7-B3/GpL16-k0 = 100).

The record behind these values is patent US20150344570A1 (published 2015).
